Measured values published in article PMC6508501, “Conserved redox‐dependent DNA binding of ROXY glutaredoxins with TGA transcription factors”.
Each block holds one molecule with its values, some of them ahead of it.

Legend:
[1] = target: mTRQ2-MpTGA (Marchantia polymorpha); experiment: FRET or BRET; FRET-FLIM; 2in1 vector, donor mTRQ2 on MpTGA, acceptor mVENUS on MpROXY; 40 nuclei of N. benthamiana leaves; mono- or biexponential decay of the donor
PAN (…) = target: T1, PAN (…) (Arabidopsis thaliana, UniProt Q9SX27 1-452); experiment: EMSA; Redox EMSA per Gutsche & Zachgo 2016 (buffer, salt, pH, temperature not stated); 0.9 mM DTT (red) or 2 mM diamide (ox); 500 ng recombinant protein per reaction; native gel; settings: tags: N-terminal MBP (per Methods), chain copies: 2, label: 5' 6-FAM, blunt
T1 sequence: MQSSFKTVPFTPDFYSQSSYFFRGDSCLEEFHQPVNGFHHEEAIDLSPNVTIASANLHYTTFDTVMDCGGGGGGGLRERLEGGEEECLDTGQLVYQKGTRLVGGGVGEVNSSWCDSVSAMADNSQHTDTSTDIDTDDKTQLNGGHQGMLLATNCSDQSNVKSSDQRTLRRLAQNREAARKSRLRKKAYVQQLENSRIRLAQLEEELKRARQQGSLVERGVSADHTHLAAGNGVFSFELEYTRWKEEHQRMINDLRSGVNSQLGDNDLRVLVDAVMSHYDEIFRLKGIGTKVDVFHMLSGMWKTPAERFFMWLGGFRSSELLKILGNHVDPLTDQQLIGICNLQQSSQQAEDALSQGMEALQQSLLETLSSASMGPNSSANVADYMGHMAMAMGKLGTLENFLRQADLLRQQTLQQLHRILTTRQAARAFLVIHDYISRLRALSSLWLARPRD

MpROXY2 = target: T2, MpROXY2 (Marchantia polymorpha (ssp. ruderalis, …, UniProt A0A2R6WT88 1-179)); experiment: EMSA; 0.9 mM DTT or 2 mM diamide; Redox EMSA per Gutsche & Zachgo 2016 (buffer, salt, pH, temperature not stated); 0.9 mM DTT (red) or 2 mM diamide (ox); 500 ng recombinant protein per reaction; native gel; settings: tags: N-terminal MBP, label: 5' 6-FAM, blunt
T2 sequence: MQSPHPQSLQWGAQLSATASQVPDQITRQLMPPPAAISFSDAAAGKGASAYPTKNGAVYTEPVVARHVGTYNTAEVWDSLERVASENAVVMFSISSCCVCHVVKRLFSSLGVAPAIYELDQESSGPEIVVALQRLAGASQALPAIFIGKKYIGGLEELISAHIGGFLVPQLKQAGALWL

PAN (…);ROXY1 = target: T3, PAN (…);ROXY1 (Arabidopsis thaliana;Arabidopsis …, UniProt Q9SX27;Q96305 1-452;1-136, |); experiment: EMSA supershift; Redox EMSA per Gutsche & Zachgo 2016 (buffer, salt, pH, temperature not stated); 0.9 mM DTT (red) or 2 mM diamide (ox); 500 ng recombinant protein per reaction; native gel; settings: tags: N-terminal MBP (per Methods);MBP, label: 5' 6-FAM, blunt
T3 sequence 1: T1 sequence
T3 sequence 2: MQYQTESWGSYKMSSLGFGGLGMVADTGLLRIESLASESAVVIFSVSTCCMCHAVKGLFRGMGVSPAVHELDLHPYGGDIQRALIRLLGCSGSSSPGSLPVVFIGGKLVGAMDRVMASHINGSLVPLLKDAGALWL

PAN (…);MpROXY2 = target: T4, PAN (…);MpROXY2 (Arabidopsis thaliana;Marchantia …, UniProt Q9SX27;A0A2R6WT88 1-452;1-179, |); experiment: as above; settings: tags: N-terminal MBP (per Methods);N-terminal MBP, label: 5' 6-FAM, blunt
T4 sequence 1: T1 sequence
T4 sequence 2: T2 sequence

reduced donor fluorescence lifetime (τDA) [1]: < 2 ns
Molecule: mVENUS-MpROXY2 (natural protein)

reduced donor fluorescence lifetime (τDA) [1]: < 2 ns
Molecule: mVENUS-MpROXY1 (natural protein)

B1: as-1-like (dsDNA)
DNA 1: CTACGTCACTATTTTACTTACGTCATAG
DNA 2: CTATGACGTAAGTAAAATAGTGACGTAG
binding result (PAN (…)): binds
binding result (MpROXY2): no binding
binding result (PAN (…);ROXY1): binds
binding result (PAN (…);MpROXY2): binds
